In publication PMC9213077:

Target: Fcγ receptors on THP-1 cells (human (endogenous in THP-1)) (UniProt P12314)
Assay: retention of opsonized erythrocytes on adherent THP-1 cells

Sequence of UniProt P12314 (P12314 16-374): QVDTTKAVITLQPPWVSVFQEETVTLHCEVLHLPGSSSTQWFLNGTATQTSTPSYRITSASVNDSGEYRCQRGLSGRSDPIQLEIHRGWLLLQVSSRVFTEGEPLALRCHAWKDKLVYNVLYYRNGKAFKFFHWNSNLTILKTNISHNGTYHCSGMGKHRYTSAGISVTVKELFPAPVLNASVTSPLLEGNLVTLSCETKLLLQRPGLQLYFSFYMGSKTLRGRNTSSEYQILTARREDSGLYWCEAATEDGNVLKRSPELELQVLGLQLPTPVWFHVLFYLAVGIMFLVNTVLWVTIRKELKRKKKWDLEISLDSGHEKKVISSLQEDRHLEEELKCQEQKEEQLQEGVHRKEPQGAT

Substance	concentration at which erythrocyte retention occurred [µg/mL]
rabbit antihuman erythrocyte antibody (Rockland; 209-4139), intact IgG	0.6
single-cleaved rabbit antihuman erythrocyte IgG generated by imlifidase (antibody)	5
